These results are taken from paper PMC5673489 (Cell, 2017).

Where only a bound is given, the exact number is not on record here.

Experiment [1] has as its target FIT-1 bispecific antibody (Fabs-in-tandem-Ig, ZKA190 outer Fab, ZKA185 inner Fab, IgG1 LALA) (human). Description: SPR.
Experiment [2] concerns the target T1, recombinant DIII of ZIKV E protein (Brazil 2015 strain SPH2015) (Zika virus, Brazil 2015 strain SPH2015, strain).
T1 chain: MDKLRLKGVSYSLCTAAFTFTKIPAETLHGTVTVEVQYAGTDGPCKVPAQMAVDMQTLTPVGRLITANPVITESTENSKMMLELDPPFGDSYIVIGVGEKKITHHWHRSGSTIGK
Kind of experiment: SPR. (In SPR one partner is held on a chip, and binding of the other changes the refractive index at the surface.)

Experiment [3] has as its target T1, recombinant DIII of ZIKV E protein …. Description: NMR titration.

As usually defined, the Kd is the concentration at which binding is half-saturated. Read a high Kd as a looser complex.

The molecule “recombinant E protein from ZIKV (natural protein)” showed a Kd in experiment [1] of less than 1 pM.

B1: ZKA190 IgG (antibody, V domains shown)
VH: QVQLVESGGGVVQPGRSLRLSCAASGFTFSKYGMHWVRQAPGKGLEWVAVISYEGSNKYYADSVKGRFTISRDNSKNTLYLQMNSLRAEDTAVYYCAKSGTQYYDTTGYEYRGLEYFGYWGQGTLVTVS
VL: EIVLTQSPGTLSLSPGERATLSCRASQSVSSSYLAWYQQKRGQAPRLLIYDASSRATGIPDRFSGSGSGTDFTLTISRLEPEDFAVYYCQQYGRSRWTFGQGTKVEIK
On to B1, for which the binding result in experiment [2] was “binds”.

B2: ZKA190 Fab (Fab, V domains shown)
VH: B1 VH
VL: B1 VL
For B2, the binding result in experiment [3] is recorded as “binds”.
